Measured values as given in US7078197.

Molecular target: 35S-labeled mRNA-peptide fusion prepared from mRNA 1 crosslinked to linker B, encoding the Flag and Strep-Tag II epitope
Experiment: precipitation of 35S-labeled fusion on affinity resin, wash, scintillation counting

Anti-Flag M2 Affinity Gel (Sigma, MO) (antibody)
fusion binding (percent bound): 54%

StrepTactin Sepharose (Genosys, Tex.)
fusion binding (percent bound): 62%
